One block for each binder: values may come before it.
Tests used:
[1] = biological target: T1, PD-L1 on the surface of tumor cells (human lung adenocarcinoma A549 cells, human melanoma A375 cells) (human, UniProt Q9NZQ7 19-290); experiment: flow cytometry on A375 and A549 cells
T1 construct: whole, on cells; No PD-L1-negative control cell is described; also called PD-L1 protein on the surface of tumor cells
Description: Human melanoma A375 cells and human lung adenocarcinoma A549 cells were diluted to 1×10⁶ cells/mL with PBS and added to 1.5 mL EP tubes at 100 μL/tube. 10 μL/tube of rat serum was added and blocked at 4° C. for 30 minutes. […] 1 mL of PBS was added to the EP tube. The system was centrifuged at 4° C. and 3500 rpm for 5 min. The supernatant was discarded, and the system was washed again with PBS. After centrifugation, the supernatant was discarded, and the cells were resuspended with 100 μL/tube PBS. 1 μL/tube of Alexa-647-labeled rat anti-human secondary antibody (Biolegend) was added and incubated at 4° C. in the dark for 30 min. The system was washed twice with PBS, and the supernatant was discarded after centrifugation. The cells were resuspended with 200 μL/tube PBS and detected by flow cytometry.

[2] = biological target: T2, Human PD-L1-Fc fusion protein (purchased from Acro) (human, UniProt Q9NZQ7 19-238); experiment: ELISA, PD-L1-Fc coated at 1 µg/ml; h19B8 binds slightly more strongly than CD3×h19B8
T2 construct: extracellular domain; also called PD-L1 fusion protein; PD-L1 extracellular region protein; not shown: Fc part of the bought fusion protein

[3] = biological target: T2, Human PD-L1-Fc fusion protein …; experiment: ELISA
[4] = biological target: T2, Human PD-L1-Fc fusion protein …; experiment: ELISA, PD-L1-Fc coated at 1 µg/ml, anti-mouse IgG-HRP
Description: The PBS buffer in the 96-well plate was removed, and the plate was washed 6 times with PBST (pH 7.2 PBS containing 0.1% Tween 20) buffer. PBS/10% BSA was added at 200 μl/well and incubated at 37° C. for 2 h for blocking. The blocking solution was removed, and the plate was washed 6 times with PBST. […] The reaction system was removed, and the plate was washed 6 times with PBST. HRP (horseradish peroxidase)-labeled anti-mouse IgG secondary antibody was diluted with PBST/0.05% BSA at 100 μl/well and incubated at 37° C. for 1 h. After washing the plate 6 times with PBST, 80 μl/well TMB (tetramethylbenzidine) was added and incubated at room temperature for 3 min. 4 M sulfuric acid was added at 80 μl/well to terminate the reaction. The absorbance was read at 450 nm using a microplate reader.

[5] = biological target: T1, PD-L1 on the surface of tumor cells …; experiment: flow cytometry on A549 cells
Description: 1 mL of PBS was added to the EP tube. […] The supernatant was discarded, and the system was washed again with PBS. […] The system was washed twice with PBS, and the supernatant was discarded after centrifugation. The cells were resuspended with 200 μL/tube PBS and detected by flow cytometry.

T2 sequence (Q9NZQ7 19-238): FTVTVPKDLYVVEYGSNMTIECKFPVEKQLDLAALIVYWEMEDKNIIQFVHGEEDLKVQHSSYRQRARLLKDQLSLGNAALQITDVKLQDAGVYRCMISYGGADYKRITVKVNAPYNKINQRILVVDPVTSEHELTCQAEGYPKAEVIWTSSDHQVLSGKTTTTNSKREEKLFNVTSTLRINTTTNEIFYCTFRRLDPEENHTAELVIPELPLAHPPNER
T1 sequence (Q9NZQ7 19-290): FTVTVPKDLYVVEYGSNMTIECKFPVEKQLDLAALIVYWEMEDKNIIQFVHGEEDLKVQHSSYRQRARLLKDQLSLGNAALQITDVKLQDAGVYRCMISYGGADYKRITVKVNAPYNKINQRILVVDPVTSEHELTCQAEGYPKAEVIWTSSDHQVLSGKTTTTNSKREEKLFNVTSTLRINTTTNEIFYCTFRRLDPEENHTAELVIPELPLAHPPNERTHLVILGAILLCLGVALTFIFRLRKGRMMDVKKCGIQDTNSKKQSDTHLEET

binding result [1]: binds | binding result [2]: binds
B1: humanized PD-L1 antibody h19B8-hIgG1LALA (h19B8-hIgG1LALA heavy chain / h19B8-hK light chain) (antibody, V domains shown)
VH: QVQLVQSGAEVKKPGASVKVSCKASGYSFTGYYMHWVRQAPGQGLEWIGRINPYNGATTYSQNFKDRATMTVDTSISTAYMELSRLRSDDTAVYYCVPTGMGYFLMDYWGQGTLVTVSS
VL: DIQLTQSPSFLSASVGDRVTITCKASQDVGSAVVWYQQKPGKAPKLLIYWASTRHTGVPSRFSGSGSGTEFTLTISSLQPEDFATYFCQQFTSYPTFGQGTKLEIKR
notes: also called humanized 19B8 antibody; h19B8 monoclonal antibody

binding result [1]: binds | binding result [3]: binds
B2: chimeric antibody 19B8-hIgG1LALA (19B8-hIgG1LALA heavy chain / 19B8-hK light chain) (antibody)
heavy: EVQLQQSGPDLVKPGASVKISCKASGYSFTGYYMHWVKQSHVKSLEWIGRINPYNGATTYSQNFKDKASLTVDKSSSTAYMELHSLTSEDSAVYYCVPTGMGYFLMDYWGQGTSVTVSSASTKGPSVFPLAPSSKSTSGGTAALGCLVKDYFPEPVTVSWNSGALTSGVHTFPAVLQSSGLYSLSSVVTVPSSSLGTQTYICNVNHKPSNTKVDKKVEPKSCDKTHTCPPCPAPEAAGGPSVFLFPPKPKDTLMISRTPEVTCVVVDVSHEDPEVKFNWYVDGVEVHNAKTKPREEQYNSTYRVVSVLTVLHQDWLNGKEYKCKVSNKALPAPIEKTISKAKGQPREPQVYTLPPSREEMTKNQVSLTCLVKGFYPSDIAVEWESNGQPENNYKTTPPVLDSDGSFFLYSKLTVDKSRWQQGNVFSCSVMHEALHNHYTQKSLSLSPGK
light: DIVMTQSHKFMSASVGDRVSITCKASQDVGSAVVWYRQKPGQSPKLLIYWASTRHTGVPDRFTGSGSGTDFTLTISNVQSEDLADYFCQQFTSYPTFGSGTRLEIKRTVAAPSVFIFPPSDEQLKSGTASVVCLLNNFYPREAKVQWKVDNALQSGNSQESVTEQDSKDSTYSLSSTLTLSKADYEKHKVYACEVTHQGLSSPVTKSFNRGEC
notes: Murine 19B8 variable regions on human IgG1 LALA / human kappa constant regions; also called 19B8 chimeric antibody; human-murine chimeric PD-L1 antibody

binding result [4]: binds | binding result [5]: binds
B3: murine 19B8 antibody (19B8-mIgG1 heavy chain / 19B8-mK light chain) (antibody)
heavy: EVQLQQSGPDLVKPGASVKISCKASGYSFTGYYMHWVKQSHVKSLEWIGRINPYNGATTYSQNFKDKASLTVDKSSSTAYMELHSLTSEDSAVYYCVPTGMGYFLMDYWGQGTSVTVSSAKTTPPSVYPLAPGSAAQTNSMVTLGCLVKGYFPEPVTVTWNSGSLSSGVHTFPAVLQSDLYTLSSSVTVPSSPRPSETVTCNVAHPASSTKVDKKIVPRDCGCKPCICTVPEVSSVFIFPPKPKDVLTITLTPKVTCVVVDISKDDPEVQFSWFVDDVEVHTAQTQPREEQFNSTFRSVSELPIMHQDWLNGKEFKCRVNSAAFPAPIEKTISKTKGRPKAPQVYTIPPPKEQMAKDKVSLTCMITDFFPEDITVEWQWNGQPAENYKNTQPIMNTNGSYFVYSKLNVQKSNWEAGNTFTCSVLHEGLHNHHTEKSLSHSPGK
light: DIVMTQSHKFMSASVGDRVSITCKASQDVGSAVVWYRQKPGQSPKLLIYWASTRHTGVPDRFTGSGSGTDFTLTISNVQSEDLADYFCQQFTSYPTFGSGTRLEIKRADAAPTVSIFPPSSEQLTSGGASVVCFLNNFYPKDINVKWKIDGSERQNGVLNSWTDQDSKDSTYSMSSTLTLTKDEYERHNSYTCEATHKTSTSPIVKSFNRNEC
notes: Recombinant murine IgG1/kappa made in ExpiCHO-S cells; also called murine PD-L1 antibody 19B8; murine PD-L1 antibody (19B8)

— US20260078186A1 (HEFEI TG IMMUNOPHARMA, published 2026)
